Assay results taken from paper PMC3427169, “Interaction of Mycobacterium tuberculosis RshA and SigH Is Mediated by Salt Bridges” (PLoS ONE, 2012).

Key:
[1] = target: SigH (Mycobacterium tuberculosis) (UniProt P9WGH8); conditions: cited from earlier work
[2] = target: T1, Mycobacterium tuberculosis SigH, 6xHis-tagged (pET29a) (Mycobacterium tuberculosis H37Rv, UniProt P9WGH9 1-216); experiment: native gel or EMSA; metal free RshA mixed with SigH at equimolar concentrations (3 µM each in the text, 5 µM each in the legend), 50 mM Tris HCl pH 8.0, 100 mM NaCl, 0.01% Triton X-100, 25°C; native gel pH 8.8 and SDS-PAGE, Coomassie; conditions: both partners purified
T1 construct: no tag removal is told; also called WT SigH; 6xHis:SigH; not shown: His6, C-terminal, kept
T1 sequence (P9WGH9 whole entry): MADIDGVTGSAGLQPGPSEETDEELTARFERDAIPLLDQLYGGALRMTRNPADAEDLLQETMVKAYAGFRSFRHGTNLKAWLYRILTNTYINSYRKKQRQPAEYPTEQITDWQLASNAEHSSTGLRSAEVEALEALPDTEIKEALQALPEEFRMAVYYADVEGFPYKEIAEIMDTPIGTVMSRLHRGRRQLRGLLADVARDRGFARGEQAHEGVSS

SigH (Mycobacterium tuberculosis), sequence (P9WGH8 whole entry): as the sequence (P9WGH9 whole entry) above

## RshA (from UniProt P9WJ68)
[1]
  Kd: 15 nM

B1: Mycobacterium tuberculosis anti-sigma factor RshA, 6xHis-tagged (pET29a) (natural protein)
chain: MSENCGPTDAHADHDDSHGGMGCAEVIAEVWTLLDGECTPETRERLRRHLEACPGCLRHYGLEERIKALIGTKCRGDRAPEGLRERLRLEIRRTTIIRGGP
notes: also called WT RshA; 6xHis:RshA; not shown: His6, C-terminal, kept
[2]
  binding result: binds
